For assay [1], the target named is T1, hiR1-FL-WT-T7 (human iRhom1 full length wild type C-terminally tagged with 3 consecutive copies of the T7 … (human, UniProt Q96CC6 1-855)).
T1 construct: also called human iRhom1 variant expressed by MEF-DKO-hiR1-FL-WT-T7 cells
T1 sequence: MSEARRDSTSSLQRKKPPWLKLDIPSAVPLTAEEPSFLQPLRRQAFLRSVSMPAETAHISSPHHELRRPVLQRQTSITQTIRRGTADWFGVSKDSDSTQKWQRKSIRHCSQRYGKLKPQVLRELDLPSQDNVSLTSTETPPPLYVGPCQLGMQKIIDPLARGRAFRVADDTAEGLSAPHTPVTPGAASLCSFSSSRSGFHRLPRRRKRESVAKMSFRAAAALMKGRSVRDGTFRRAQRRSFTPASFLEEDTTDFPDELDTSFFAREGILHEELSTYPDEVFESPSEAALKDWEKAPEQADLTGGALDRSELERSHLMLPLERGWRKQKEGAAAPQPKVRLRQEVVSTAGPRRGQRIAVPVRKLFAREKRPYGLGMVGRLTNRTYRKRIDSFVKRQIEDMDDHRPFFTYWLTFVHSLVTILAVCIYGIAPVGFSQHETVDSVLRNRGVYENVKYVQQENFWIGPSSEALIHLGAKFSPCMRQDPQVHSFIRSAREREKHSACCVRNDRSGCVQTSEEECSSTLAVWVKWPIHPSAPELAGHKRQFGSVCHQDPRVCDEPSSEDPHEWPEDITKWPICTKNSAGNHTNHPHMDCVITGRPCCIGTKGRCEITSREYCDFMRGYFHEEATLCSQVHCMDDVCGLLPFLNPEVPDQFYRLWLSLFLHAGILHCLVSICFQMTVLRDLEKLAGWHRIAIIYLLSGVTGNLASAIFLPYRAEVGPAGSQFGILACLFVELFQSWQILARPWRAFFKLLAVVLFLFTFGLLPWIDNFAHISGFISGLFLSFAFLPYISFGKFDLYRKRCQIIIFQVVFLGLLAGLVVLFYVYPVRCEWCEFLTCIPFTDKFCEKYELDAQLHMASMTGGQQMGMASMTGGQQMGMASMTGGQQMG
The assay can be described thus: FACS, MEF-DKO-hiR1-FL-WT-T7 cells. A general note: Flow cytometry measures light scatter and fluorescence of single cells or particles in a stream.

Assay [2] addresses T2, miR2-FL-WT-T7 (mouse iRhom2 full length wild type C-terminally tagged with 3 consecutive copies of the T7 … (mouse, UniProt Q80WQ6 1-827)).
T2 construct: also called mouse iRhom2 variant expressed by MEF-DKO-miR2-FL-WT-T7 cells
T2 sequence: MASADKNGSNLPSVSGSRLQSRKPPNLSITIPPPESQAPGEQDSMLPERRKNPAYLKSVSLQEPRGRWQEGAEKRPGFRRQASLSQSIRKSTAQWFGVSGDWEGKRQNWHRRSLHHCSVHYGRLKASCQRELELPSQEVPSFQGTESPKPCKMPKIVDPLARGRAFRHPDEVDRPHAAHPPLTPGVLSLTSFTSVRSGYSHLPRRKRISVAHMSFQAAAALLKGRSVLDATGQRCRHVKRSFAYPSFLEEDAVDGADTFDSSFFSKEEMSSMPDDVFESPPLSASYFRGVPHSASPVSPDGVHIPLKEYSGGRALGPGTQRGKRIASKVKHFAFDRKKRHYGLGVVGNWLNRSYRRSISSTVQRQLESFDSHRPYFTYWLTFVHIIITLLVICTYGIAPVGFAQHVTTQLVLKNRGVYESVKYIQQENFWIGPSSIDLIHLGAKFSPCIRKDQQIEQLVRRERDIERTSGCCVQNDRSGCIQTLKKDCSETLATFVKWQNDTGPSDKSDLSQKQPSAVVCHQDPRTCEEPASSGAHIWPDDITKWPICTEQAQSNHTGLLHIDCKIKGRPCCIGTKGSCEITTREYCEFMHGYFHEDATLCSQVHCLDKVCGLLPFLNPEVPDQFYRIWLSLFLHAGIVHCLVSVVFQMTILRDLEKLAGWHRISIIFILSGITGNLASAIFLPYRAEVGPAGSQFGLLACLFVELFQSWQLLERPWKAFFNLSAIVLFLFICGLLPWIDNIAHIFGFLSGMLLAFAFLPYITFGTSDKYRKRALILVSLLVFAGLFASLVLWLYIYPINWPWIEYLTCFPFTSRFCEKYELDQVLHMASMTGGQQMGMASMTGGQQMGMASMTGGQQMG
In words: FACS on MEF-DKO-miR2-FL-WT-T7 cells.

Assay [3] concerns the target T3, hiR2-FL-P533-T7 (human iRhom2 full length with deletion of P533, 3 x T7 tag) (human, UniProt Q6PJF5 1-856).
T3 construct: The change is a deletion of one residue, not a substitution
T3 sequence: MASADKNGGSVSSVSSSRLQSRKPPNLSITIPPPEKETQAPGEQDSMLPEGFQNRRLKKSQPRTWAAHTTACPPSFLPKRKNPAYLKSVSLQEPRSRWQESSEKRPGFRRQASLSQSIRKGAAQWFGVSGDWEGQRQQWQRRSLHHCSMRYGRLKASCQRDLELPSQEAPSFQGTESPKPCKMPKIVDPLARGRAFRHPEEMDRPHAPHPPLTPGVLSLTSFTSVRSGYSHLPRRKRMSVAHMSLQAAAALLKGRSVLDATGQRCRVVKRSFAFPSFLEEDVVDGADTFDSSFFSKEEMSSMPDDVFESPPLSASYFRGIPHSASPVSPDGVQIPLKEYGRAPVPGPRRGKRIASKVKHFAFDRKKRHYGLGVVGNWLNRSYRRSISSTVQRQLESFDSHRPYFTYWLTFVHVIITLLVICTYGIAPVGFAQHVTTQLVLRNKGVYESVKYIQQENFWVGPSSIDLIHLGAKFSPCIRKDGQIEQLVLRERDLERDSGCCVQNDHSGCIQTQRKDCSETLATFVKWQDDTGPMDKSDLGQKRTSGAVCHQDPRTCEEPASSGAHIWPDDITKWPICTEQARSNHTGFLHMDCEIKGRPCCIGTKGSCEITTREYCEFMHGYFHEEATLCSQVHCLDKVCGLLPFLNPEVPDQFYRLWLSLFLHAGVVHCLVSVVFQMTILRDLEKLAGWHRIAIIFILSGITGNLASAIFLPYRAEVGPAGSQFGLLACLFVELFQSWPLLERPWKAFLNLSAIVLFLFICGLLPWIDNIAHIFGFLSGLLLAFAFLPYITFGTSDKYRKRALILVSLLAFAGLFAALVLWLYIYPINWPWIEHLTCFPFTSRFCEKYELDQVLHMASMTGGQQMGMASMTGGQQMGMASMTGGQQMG
The assay can be described thus: FACS on MEF-DKO-hiR2-FL-P533- -T7 cells.

B1: antibody 48 (antibody, V domains shown)
VH: QVQLQQSGTELVRPGTSVKVSCKASGYAFTNYLIEWVKQRPGQGLEWIGVINPGSGFTKYNEKFKGKATLTADKSSSTVYMHLSSLTSEDSAVYFCARGLYRAMDYWGQGTSVTVSS
VL: DIQMTQSPASQSASLGESVTITCLASQTIATWLAWYQQKPGKSPQLLIYGATTLADGVPSRFSGGGSGTKFSFKISSLQAEDFVSYYCQQLYSTPYTFGGGTKLEIK
notes: Mouse IgG, kappa light chain; also called clone #48; purified antibody 48
Consider B1, for which, in assay [1], the binding result is reported as “no binding (tested: 3 µg/ml)”.

B2: antibody 3 (antibody, V domains shown)
VH: QVTLKESGPGILQPSQTLSLTCSFSGFSLTTFAMGIGWVRQPSGKGLEWLAHIWWDGEKYNNPVLKSRLTISKDTSKNQVFLRIANVDTPDTATYYCARISSIYYIIDNWGQGTSVTVSS
VL: DIVLTQSPATLSVTPGHSVSLSCRASQSISNNLHWYQKKSHESPRLLIKYVSQSISGIPSRFSGSGSGTDFTLSINSVETEDFGMYFCQQSYNWPLTFGAGTKLELK
notes: Mouse IgG, kappa light chain; also called clone #3; purified antibody 3
As for B2, the binding result in assay [2] and in assay [3] was “no binding (tested: 3 µg/ml)” each time.
